Among the data in US20180244730A1 are reaction yield and percent of SnoopCatcher consumed values, retold here.

Assay [1] deals with SnoopCatcher (Streptococcus pneumoniae). Description: time-course of isopeptide bond formation, SDS-PAGE densitometry, 1:1 ratio.
Assay [2] has the same target. The experiment in a line: time-course of isopeptide bond formation, SDS-PAGE densitometry, excess of SnoopTag-MBP.

Consider SnoopTag-MBP, for which the reaction yield in assay [1] was found to be 80%. Also, the percent of SnoopCatcher consumed in assay [2] is 100%.
